This note sets out measurements from patent US20210386836.

The target of data set [1] is IP-10.
Data set [2] has as its target C4.
The target of data set [3] is IL-17.
The target in data set [4] is C3a, P01024.
In data set [5] the target is IL-3.
For data set [6], the target named is T1, C4-Binding protein, P04003.
T1 chain 1: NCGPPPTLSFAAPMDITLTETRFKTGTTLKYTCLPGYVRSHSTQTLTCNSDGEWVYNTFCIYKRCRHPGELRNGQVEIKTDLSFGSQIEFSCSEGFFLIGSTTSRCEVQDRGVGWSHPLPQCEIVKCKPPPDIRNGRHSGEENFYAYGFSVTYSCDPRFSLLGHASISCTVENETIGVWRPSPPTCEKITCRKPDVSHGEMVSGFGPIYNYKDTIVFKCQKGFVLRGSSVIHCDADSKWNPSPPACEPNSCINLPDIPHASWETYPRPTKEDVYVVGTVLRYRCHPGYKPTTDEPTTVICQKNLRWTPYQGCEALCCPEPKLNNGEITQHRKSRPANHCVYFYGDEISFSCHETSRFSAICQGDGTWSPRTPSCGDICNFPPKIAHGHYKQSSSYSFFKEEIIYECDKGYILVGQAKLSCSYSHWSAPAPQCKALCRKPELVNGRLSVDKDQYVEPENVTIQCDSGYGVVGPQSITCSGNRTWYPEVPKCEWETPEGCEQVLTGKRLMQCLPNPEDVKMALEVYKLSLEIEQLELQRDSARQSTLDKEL
T1 chain 2: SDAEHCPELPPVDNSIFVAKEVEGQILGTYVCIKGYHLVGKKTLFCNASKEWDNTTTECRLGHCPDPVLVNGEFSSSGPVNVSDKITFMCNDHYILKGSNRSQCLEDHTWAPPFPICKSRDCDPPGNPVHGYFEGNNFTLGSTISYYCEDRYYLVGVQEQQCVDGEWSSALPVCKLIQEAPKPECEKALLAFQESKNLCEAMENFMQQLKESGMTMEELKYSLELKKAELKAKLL

The target in data set [7] is T2, Factor H, P08603.
T2 chain: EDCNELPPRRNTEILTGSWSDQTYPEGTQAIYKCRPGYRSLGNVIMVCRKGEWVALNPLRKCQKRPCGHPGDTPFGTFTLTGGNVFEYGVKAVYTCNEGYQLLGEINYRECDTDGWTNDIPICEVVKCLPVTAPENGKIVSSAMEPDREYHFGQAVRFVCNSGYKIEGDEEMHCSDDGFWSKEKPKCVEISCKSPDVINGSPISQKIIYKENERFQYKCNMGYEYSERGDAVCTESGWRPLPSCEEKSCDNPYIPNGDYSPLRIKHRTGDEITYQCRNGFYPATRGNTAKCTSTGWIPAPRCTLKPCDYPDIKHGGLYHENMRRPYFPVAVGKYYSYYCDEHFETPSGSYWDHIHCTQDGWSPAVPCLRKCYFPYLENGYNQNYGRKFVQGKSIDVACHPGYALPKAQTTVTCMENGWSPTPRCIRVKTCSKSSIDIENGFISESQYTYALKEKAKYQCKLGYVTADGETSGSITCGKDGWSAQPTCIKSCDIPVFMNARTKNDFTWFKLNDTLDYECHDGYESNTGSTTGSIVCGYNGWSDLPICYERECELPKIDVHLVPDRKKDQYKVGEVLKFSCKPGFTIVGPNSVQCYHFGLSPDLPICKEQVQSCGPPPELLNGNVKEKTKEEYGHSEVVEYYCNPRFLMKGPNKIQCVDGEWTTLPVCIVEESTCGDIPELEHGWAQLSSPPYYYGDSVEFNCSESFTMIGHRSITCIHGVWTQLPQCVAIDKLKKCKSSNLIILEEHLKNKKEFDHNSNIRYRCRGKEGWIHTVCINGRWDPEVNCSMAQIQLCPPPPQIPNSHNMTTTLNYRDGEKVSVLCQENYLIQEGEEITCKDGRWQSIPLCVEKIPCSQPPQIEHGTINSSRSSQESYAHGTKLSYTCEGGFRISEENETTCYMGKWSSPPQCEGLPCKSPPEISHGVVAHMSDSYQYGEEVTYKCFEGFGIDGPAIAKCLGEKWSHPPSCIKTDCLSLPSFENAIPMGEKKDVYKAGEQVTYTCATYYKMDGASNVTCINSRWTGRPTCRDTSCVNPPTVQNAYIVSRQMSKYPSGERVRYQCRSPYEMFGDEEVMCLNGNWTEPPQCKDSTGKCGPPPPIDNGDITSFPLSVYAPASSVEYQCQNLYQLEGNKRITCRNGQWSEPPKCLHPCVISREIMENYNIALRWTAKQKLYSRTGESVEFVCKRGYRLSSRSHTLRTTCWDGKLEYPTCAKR

For data set [8], the target named is T3, human C5a, P01031.
T3 chain: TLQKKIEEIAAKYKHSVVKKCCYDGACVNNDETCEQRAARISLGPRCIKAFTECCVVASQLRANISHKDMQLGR

The target in data set [9] is TNF-α.
Data set [10] addresses IL-1β.
The target of data set [11] is T4, C-Reactive protein, P02741.
T4 chain: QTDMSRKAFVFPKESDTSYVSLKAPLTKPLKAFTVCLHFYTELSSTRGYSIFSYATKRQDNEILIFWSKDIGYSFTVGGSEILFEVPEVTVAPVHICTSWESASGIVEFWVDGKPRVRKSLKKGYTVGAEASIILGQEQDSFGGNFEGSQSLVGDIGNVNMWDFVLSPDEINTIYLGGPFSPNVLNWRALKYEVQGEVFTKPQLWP

In data set [12] the target is T5, C1 inhibitor, P05155.
T5 chain: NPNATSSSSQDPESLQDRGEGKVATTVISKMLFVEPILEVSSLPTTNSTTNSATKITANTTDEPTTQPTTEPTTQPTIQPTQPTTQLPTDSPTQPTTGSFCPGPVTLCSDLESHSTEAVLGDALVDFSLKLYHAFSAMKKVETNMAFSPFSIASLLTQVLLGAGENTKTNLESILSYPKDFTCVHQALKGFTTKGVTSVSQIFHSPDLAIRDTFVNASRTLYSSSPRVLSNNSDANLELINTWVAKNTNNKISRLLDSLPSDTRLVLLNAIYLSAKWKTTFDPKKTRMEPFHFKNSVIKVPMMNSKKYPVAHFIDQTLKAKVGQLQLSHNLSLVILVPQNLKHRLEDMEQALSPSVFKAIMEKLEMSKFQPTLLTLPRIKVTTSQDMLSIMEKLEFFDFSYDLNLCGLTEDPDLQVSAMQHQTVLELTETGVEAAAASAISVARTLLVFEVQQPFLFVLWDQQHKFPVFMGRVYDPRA

In data set [13] the target is Properidin, P27918.
Chain of Properidin, P27918 (P27918 28-469): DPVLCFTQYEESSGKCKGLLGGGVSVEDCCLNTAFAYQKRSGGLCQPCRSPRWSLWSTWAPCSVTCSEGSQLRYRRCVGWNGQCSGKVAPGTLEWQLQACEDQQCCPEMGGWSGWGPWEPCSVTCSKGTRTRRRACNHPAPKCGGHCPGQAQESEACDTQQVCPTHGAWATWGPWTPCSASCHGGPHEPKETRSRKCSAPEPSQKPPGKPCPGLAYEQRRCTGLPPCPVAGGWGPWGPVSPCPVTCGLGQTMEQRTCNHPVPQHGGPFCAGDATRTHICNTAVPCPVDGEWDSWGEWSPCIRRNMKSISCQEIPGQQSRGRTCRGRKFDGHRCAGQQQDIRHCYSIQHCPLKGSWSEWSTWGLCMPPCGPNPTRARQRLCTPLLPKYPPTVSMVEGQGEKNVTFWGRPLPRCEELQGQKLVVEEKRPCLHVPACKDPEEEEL

Chain of C3a, P01024 (P01024 672-748): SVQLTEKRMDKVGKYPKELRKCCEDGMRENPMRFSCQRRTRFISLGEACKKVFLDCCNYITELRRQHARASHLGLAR

B1: PrtI(ProB) (protein)
chain: AIGETSVQNVKVSVAKNESDSQKFNNSQNLEQKTPQAAAANQNGSQVQNDHTETQLQNQQTTQSQVTQAHTEENNASSIPEPANQADHVKGNVQSAWDQGYKGQNTVVAVIDSGADTSHKDFQTMPSNPKLKQEDVQSKIDQQGYGKYVNEKFPYVYNYADRDNDYIKSDDNNQXNDSPHGQHVSGIIAADGHPEGDQQYVVGVAPEAQLMQLRVFGQFSDEKTDDVARAIYDATNLGADVIQMSLGQGVADQQLTNIEQKAVQYAIDHGVFVSISASNNGNSASVDNPSKVTAKGYGSGSEAGNYEPLNSGTVANPGASKNALTVAAETSGTGKDSDMASFSSWGPLSDFSLKPDLSAPGYQVVSTVNDNQYQTMSGTSMAGPFAAGSAALVIQRLKQTNPELKGAELVAATKALLMNSAKVQTQNGYTTPVSPRRQGAGQIDVGAATANPVYVTAADGTSSLSLRQVDEKTTFTLTFHNLTDQEQSYSFNDLGGGYTEQRDPDSGVFHEVQLAGAHVNGVGNFTLAPKEVKDLQYTLDLQGLNKNQPVEGWLHFTNDKDKSTVVVPYLAYYGDLTSENVFDQNANEEKPDIQGNRFVNENNYPLGVTDQESLKQLVNVDSDYNWQEVAKLYESGKVAFSPNDDHQSDLIKPYAYLKQNVKDLKVEILDAKGNVVRVVSDVQGVDKSYDESGVTKDASLSVSMRDNPDAFEWDGKVYDTKTGQMVTAPDGQYTYRFVATLWNEGPNQKQTADFPVVVDTQAPSLSVKYDSATHTLSGNYEDKGAGFTDYSYVTVQVNDKVFGYKLNEGESGFDNSEKTKGHFNFTLSSDALDALSGSLNKVSVTLSDVANNTTVKTVDVPAVKDQPAVSVWNATEGVEFNKNSKDYNKENDTYTLYGSAAQDFYLNGALVQVRDGKYEVPVKTTTQDLVFSTDQAGKNVLKSFTTFTPKAFFNWQNVDGFDGNFGVNIYSVKTNDPNNAVVQAAVPLGKNVKAYAQDYFTGEVYKGQVENGVATFHVHTSINQGEDGIFKRALLTGWSEVDGPAYNDKQVTSKAGVASSNHLGVYYTTDKVNRKVYTDRADLGVDVQDEAADLSSFGPTAYPGHALADLTTRTDPNPAIHFDYLNDNDTTRFGQNAVTDGYYDSVTKKFTVTGHVDPEVKSLTVLGDSSDENAPQNQVKLGKDGKFSFSFTTENVGQRPVAYIYTDQNGQKVRGTLNVVLDTVAPTLNVDQVNGNELEVKTNNPLFKLSGVVNDNLDGYRLYVNGNNIYREFLNSGYNKLAGLNTDGTDVNPYGPHNFEESFNLNDDNNQPTTHVFTIYVVDQVGNKVEKKIAVNYDPDYVA
modifications: not fully specified; X: residue not identified in the source
On to B1, for which the “protein cleavage assay (SDS-PAGE)” value in data set [1], in data set [3], in data set [4], in data set [5], in data set [8] and in data set [9] was “has activities against” each time. Further, in [10], the “protein cleavage assay (SDS-PAGE)” value was “has activities against”. The “proteolytic activity (SDS-PAGE)” value in [2], in [6], in data set [7], in [11], in data set [12] and in [13] was “None of the complement proteins tested show evidence of breakdown” each time. For the same protein, the “proteolytic activity (control of enzyme stock)” value in data set [4] is listed as “shown to be active against C3a”.
